Measured values from patent US11999771B2, “IL-7Rαγc ligand immunoglobulin fusion proteins” (MEDIKINE, INC., priority 2022, dated 2024).

Test: Pharmacokinetics of the IL-7Rαγc IgG2-Fc fusion protein in non-human primates (serum level quantified by TF-1-7Rα STAT5 phosphorylation bioassay)
Format: in vivo
Details: single dose of 1 mg/kg
Method: A pharmacokinetic study of an IL-7Rαγc IgG2-Fc fusion protein was performed in non-human primates. The IL-7Rαγc IgG2-Fc fusion having SEQ ID NO: 45 was administered intravenously (IV), subcutaneously (SC), or intramuscularly (IM) with a single dose of 1 mg/kg into each non-human primate (n=10). Blood samples were collected at times post-dose into serum separator vials. Samples were centrifuged at 10,000× g for 5 min at 4° C. followed by transferring the serum to a new tube. Samples were frozen and stored at −80° C. prior to testing.
The TF-1-7Rα STAT5 phosphorylation bioassay was used to quantity the amount of the IL-7Rαγc IgG2-Fc fusion in each of the serum samples. Three-fold serial dilutions of each serum sample or a compound reference standard in starvation media were added to the cells and incubated for 30 mins with the cells. Cells extracts were prepared and the quantity of phosphorylated STAT5 was determined as described in Example 3. The IL-7Rαγc IgG2-Fc fusion protein concentration in each serum sample was calculated using a standard curve generated from the reference standard.

B1: hu-IgG2-Fc-(GS)10GG-IL-7Raγc (protein)
chain: ERKSSVECPPCPAPPVAGPSVFLFPPKPKDTLMISRTPEVTCVVVDVSHEDPEVQFNWYVDGVEVHNAKTKPREEQFNSTFRVVSVLTVVHQDWLNGKEYKCKVSNKGLPAPIEKTISKTKGQPREPQVYTLPPSREEMTKNQVSLTCLVKGFYPSDIAVEWESNGQPENNYKTTPPMLDSDGSFFLYSKLTVDKSRWQQGNVFSCSVMHEALHNHYTQKSLSLSPGAGSGSGSGSGSGSGSGSGSGSGGGWGIPWCTLDPGSLQCAWLGKHGGGGSGGVVCQDWEGVELCWQGG
notes: IL-7R agonist
bioavailability % F for IM administration (intramuscular vs intravenous): 117% | bioavailability % F for SC administration (subcutaneous vs intravenous): 112%
